Reference: patent US20150344570A1 (published 2015)

What was measured:
[1] = target: T1, FcγRIIa R (human, UniProt P12318 34-217); test: SPR, relative to GpH7-A5/GpH7-B3/GpL16-k0
T1 construct: extracellular domain; also called FcgRIIa R type; 2aR; not shown: His tag at the C terminus
T1 sequence (looked up): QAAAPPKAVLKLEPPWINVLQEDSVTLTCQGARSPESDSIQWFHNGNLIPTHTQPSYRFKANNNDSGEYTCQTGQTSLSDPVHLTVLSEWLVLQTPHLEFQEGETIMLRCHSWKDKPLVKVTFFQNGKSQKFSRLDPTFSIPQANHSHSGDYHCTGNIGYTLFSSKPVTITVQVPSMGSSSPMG

[2] = target: T2, FcγRIIb (human, UniProt P31994 43-217); test: SPR, relative to GpH7-A5/GpH7-B3/GpL16-k0
T2 construct: extracellular domain; also called FcgRIIb; 2b; not shown: His tag at the C terminus
T2 sequence (looked up): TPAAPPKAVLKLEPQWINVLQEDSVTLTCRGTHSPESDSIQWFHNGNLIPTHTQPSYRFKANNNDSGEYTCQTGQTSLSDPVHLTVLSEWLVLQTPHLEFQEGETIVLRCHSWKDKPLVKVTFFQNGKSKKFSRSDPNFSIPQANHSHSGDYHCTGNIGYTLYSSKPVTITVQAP

[3] = target: T1, FcγRIIa R; test: SPR; He/Con_2aR divided by He/Con_2b (FcγRIIa R over FcγRIIb)
[4] = target: T3, FcγRIIIa extracellular domain with C-terminal His tag (human, UniProt P08637 17-208); test: SPR (Biacore); He/Con_3a divided by He/Con_2b (FcγRIIb)
T3 construct: extracellular domain; also called FcgRIIIa; 3a; not shown: His tag at the C terminus

[5] = target: T4, FcγRIIb extracellular domain with C-terminal His tag (human, UniProt P31994 43-217); test: SPR (Biacore), FcγR as analyte over captured antibody; GpH7-A5/GpH7-B3/GpL16-k0 = 100
T4 construct: extracellular domain; also called FcgRIIb; 2b; not shown: His tag at the C terminus
T4 sequence (looked up): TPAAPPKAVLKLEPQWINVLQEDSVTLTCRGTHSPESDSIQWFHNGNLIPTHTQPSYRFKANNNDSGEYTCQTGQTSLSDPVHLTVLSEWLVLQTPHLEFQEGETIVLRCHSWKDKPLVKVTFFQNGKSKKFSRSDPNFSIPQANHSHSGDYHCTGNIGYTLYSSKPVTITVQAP
Method: (§1) The heterodimerized antibodies He Abs in which one of the H chains was introduced with an alteration were assayed for their binding activities to each activating FcγR and inhibitory FcγR according to the method described in Example 4. […] The activating FcγRs in FIGS. 26, 27, 28, and 29 are FcγRIa, FcγRIIa (R), FcγRIIa (H), and FcγRIIIa, respectively.
(§2) Analysis of interaction between objective antibody and the FcγR was carried out using Biacore T100 (GE Healthcare). HBS-EP+ (GE Healthcare) was used as the running buffer, and the measurement temperature was set to 25° C. Chips produced by immobilizing the antigen peptide by the amine coupling method to a Series S Sencor Chip CM5 (GE Healthcare), or alternatively, chips produced by allowing preliminarily biotinylated antigen peptides to interact with and immobilize onto a Series S Sensor Chip SA (certified) (GE Healthcare) were used. Antibodies of interest were captured onto an antigen peptide-immobilized chip, and allowed to interact to each FcγR diluted with running buffer. To regenerate and repeatedly use the chip, the antibodies captured on the chip were washed off by reacting 10 mM glycine-HCl, pH 1.5.

[6] = target: T3, FcγRIIIa extracellular domain with …; test: as above
Method: as §1, §2

T3 sequence (P08637 17-208): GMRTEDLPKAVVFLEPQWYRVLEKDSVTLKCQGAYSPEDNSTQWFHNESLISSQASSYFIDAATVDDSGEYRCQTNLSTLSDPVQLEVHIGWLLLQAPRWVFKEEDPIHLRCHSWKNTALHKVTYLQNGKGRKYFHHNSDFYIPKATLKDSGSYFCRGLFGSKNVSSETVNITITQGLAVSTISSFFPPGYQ

B1: GpH7-A5/GpH7-B3 variant V266_07I/GpL16-k0 (antibody, human IgG1, kappa)
heavy 1: not shown
heavy 2: not shown
light: DIVMTQSPLSLPVTPGEPASISCQASESLVHSNRNTYLHWYLQKPGQSPQLLIYKVSNRFSGVPDRFSGSGSGTDFTLKISRVEAEDVGVYYCSQNTHVPPTFGQGTKVEIERTVAAPSVFIFPPSDEQLKSGTASVVCLLNNFYPREAKVQWKVDNALQSGNSQESVTEQDSKDSTYSLSSTLTLSKADYEKHKVYACEVTHQGLSSPVTKSFNRGEC
notes: Heterodimerized anti-glypican-3 IgG1; mutation in the GpH7-B3 chain only; also called He Ab
In the case of B1, the He/Con_2aR [1] is reported as 120 control = 100, the He/Con_2b [2] is reported as 152 control = 100 and the He_2aR/2b [3] is reported as 0.79 ratio.

B2: GpH7-A5/GpH7-B3 variant N325_01G/GpL16-k0 (antibody, human IgG1, kappa)
heavy 1: not shown
heavy 2: not shown
light: DIVMTQSPLSLPVTPGEPASISCQASESLVHSNRNTYLHWYLQKPGQSPQLLIYKVSNRFSGVPDRFSGSGSGTDFTLKISRVEAEDVGVYYCSQNTHVPPTFGQGTKVEIERTVAAPSVFIFPPSDEQLKSGTASVVCLLNNFYPREAKVQWKVDNALQSGNSQESVTEQDSKDSTYSLSSTLTLSKADYEKHKVYACEVTHQGLSSPVTKSFNRGEC
notes: Heterodimerized IgG1 antibody; alteration in the GpH7-B3 chain only; also called He Ab
In the case of B2, the “He_3a/2b (IIIa/IIb)” value [4] is reported as 0.28 ratio, the He/Con_2b [5] is reported as 101 % of control and the He/Con_3a [6] is reported as 28 % of control.

B3: GpH7-A5/GpH7-B3 variant A327_04F/GpL16-k0 (antibody, human IgG1, kappa)
heavy 1: not shown
heavy 2: not shown
light: DIVMTQSPLSLPVTPGEPASISCQASESLVHSNRNTYLHWYLQKPGQSPQLLIYKVSNRFSGVPDRFSGSGSGTDFTLKISRVEAEDVGVYYCSQNTHVPPTFGQGTKVEIERTVAAPSVFIFPPSDEQLKSGTASVVCLLNNFYPREAKVQWKVDNALQSGNSQESVTEQDSKDSTYSLSSTLTLSKADYEKHKVYACEVTHQGLSSPVTKSFNRGEC
notes: as for B2
In the case of B3, the “He_3a/2b (IIIa/IIb)” value [4] is reported as 0.72 ratio, the He/Con_2b [5] is reported as 63.7 % of control and the He/Con_3a [6] is reported as 46.2 % of control.

B4: GpH7-A5/GpH7-B3 variant A327_15Y/GpL16-k0 (antibody, human IgG1, kappa)
heavy 1: not shown
heavy 2: not shown
light: DIVMTQSPLSLPVTPGEPASISCQASESLVHSNRNTYLHWYLQKPGQSPQLLIYKVSNRFSGVPDRFSGSGSGTDFTLKISRVEAEDVGVYYCSQNTHVPPTFGQGTKVEIERTVAAPSVFIFPPSDEQLKSGTASVVCLLNNFYPREAKVQWKVDNALQSGNSQESVTEQDSKDSTYSLSSTLTLSKADYEKHKVYACEVTHQGLSSPVTKSFNRGEC
notes: as for B2
In the case of B4, the “He_3a/2b (IIIa/IIb)” value [4] is reported as 0.77 ratio, the He/Con_2b [5] is reported as 60.8 % of control and the He/Con_3a [6] is reported as 46.8 % of control.

B5: GpH7-A5/GpH7-B3 variant A327_01G/GpL16-k0 (antibody, human IgG1, kappa)
heavy 1: not shown
heavy 2: not shown
light: DIVMTQSPLSLPVTPGEPASISCQASESLVHSNRNTYLHWYLQKPGQSPQLLIYKVSNRFSGVPDRFSGSGSGTDFTLKISRVEAEDVGVYYCSQNTHVPPTFGQGTKVEIERTVAAPSVFIFPPSDEQLKSGTASVVCLLNNFYPREAKVQWKVDNALQSGNSQESVTEQDSKDSTYSLSSTLTLSKADYEKHKVYACEVTHQGLSSPVTKSFNRGEC
notes: as for B2
In the case of B5, the “He_3a/2b (IIIa/IIb)” value [4] is reported as 0.63 ratio, the He/Con_2b [5] is reported as 116 % of control and the He/Con_3a [6] is reported as 72.4 % of control.

B6: GpH7-A5/GpH7-B3 variant A327_07I/GpL16-k0 (antibody, human IgG1, kappa)
heavy 1: not shown
heavy 2: not shown
light: DIVMTQSPLSLPVTPGEPASISCQASESLVHSNRNTYLHWYLQKPGQSPQLLIYKVSNRFSGVPDRFSGSGSGTDFTLKISRVEAEDVGVYYCSQNTHVPPTFGQGTKVEIERTVAAPSVFIFPPSDEQLKSGTASVVCLLNNFYPREAKVQWKVDNALQSGNSQESVTEQDSKDSTYSLSSTLTLSKADYEKHKVYACEVTHQGLSSPVTKSFNRGEC
notes: as for B2
B6 was tested, and the “He_3a/2b (IIIa/IIb)” value [4] was 0.33 ratio, the He/Con_2b [5] was 127 % of control and the He/Con_3a [6] was 42.4 % of control.

B7: GpH7-A5/GpH7-B3 variant A327_03V/GpL16-k0 (antibody, human IgG1, kappa)
heavy 1: not shown
heavy 2: not shown
light: DIVMTQSPLSLPVTPGEPASISCQASESLVHSNRNTYLHWYLQKPGQSPQLLIYKVSNRFSGVPDRFSGSGSGTDFTLKISRVEAEDVGVYYCSQNTHVPPTFGQGTKVEIERTVAAPSVFIFPPSDEQLKSGTASVVCLLNNFYPREAKVQWKVDNALQSGNSQESVTEQDSKDSTYSLSSTLTLSKADYEKHKVYACEVTHQGLSSPVTKSFNRGEC
notes: as for B2
For B7, the “He_3a/2b (IIIa/IIb)” value [4] was 0.48 ratio, the He/Con_2b [5] was 94.7 % of control and the He/Con_3a [6] was 45.8 % of control.
